In US20220089704A1 (published 2022):

Experiments:
Human tau = Human tau (human, UniProt P10636 1-441); assay: direct binding ELISA
Human alpha-synuclein = Human alpha-synuclein (human, UniProt P37840 1-140); assay: direct binding ELISA

Chain of Human tau (P10636 other isoform, or with tags, fused parts or gaps): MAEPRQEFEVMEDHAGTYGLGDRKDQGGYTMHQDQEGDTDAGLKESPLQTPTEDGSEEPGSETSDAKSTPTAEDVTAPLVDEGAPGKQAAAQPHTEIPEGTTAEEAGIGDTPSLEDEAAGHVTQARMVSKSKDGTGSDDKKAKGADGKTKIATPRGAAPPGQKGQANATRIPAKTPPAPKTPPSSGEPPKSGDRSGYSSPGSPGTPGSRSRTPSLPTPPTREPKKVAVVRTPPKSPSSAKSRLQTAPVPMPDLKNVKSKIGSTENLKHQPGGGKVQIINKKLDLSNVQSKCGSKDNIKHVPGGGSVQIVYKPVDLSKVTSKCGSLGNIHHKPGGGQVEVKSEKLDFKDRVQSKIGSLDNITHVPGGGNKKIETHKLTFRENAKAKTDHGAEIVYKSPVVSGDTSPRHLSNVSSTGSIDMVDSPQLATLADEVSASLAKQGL

EC50 (Human tau) | EC50 (Human alpha-synuclein) | Binder
0.52 nM | – | 6C5 hIgG1 (antibody, V domains shown) VH: QVQLVESGGGVVQPGRSLRVSCAASGFTFSSYDMHWVRQAPGKGLEWVAVIWFDGSNEFYADSVKGRFTISRDNSKNTLFLQMNSLRAEDTAVYYCARDLGASVTTSNAENFHHWGQGTLVTVSS VL: SYELTQPPSVSVSPGQTARITCSGDALPKRYVYWYQQKSGQAPVLVIYEDSKRPSGIPETFSGSSSGTMATLTISGAQVEDEADYYCYSTDSNGHHWVFGGGTKLTVLG
0.74 nM | – | FC5-H62(T33C/A104C)-G4S-6C5 hIgG1 (HC) (bispecific antibody) heavy: not shown light: SYELTQPPSVSVSPGQTARITCSGDALPKRYVYWYQQKSGQAPVLVIYEDSKRPSGIPETFSGSSSGTMATLTISGAQVEDEADYYCYSTDSNGHHWVFGGGTKLTVLGQPKAAPSVTLFPPSSEELQANKATLVCLISDFYPGAVTVAWKADSSPVKAGVETTTPSKQSNNKYAASSYLSLTPEQWKSHRSYSCQVTHEGSTVEKTVAPTECS
0.98 nM | – | FC5-H62(T33C/A104C)-G4S-6C5 (LC) (bispecific antibody) heavy: not shown light: DVQLVESGGGLVQPGGSLRLSCAASGFKITHYCTGWFRQAPGKEREFVSRITWGGDNTFYSNSVKGRFTISRDNSKNTVYLQMNSLRAEDTAVYYCAAGSTSTCTPLRVDYWGQGTLVTVSSGGGGSSYELTQPPSVSVSPGQTARITCSGDALPKRYVYWYQQKSGQAPVLVIYEDSKRPSGIPETFSGSSSGTMATLTISGAQVEDEADYYCYSTDSNGHHWVFGGGTKLTVLGQPKAAPSVTLFPPSSEELQANKATLVCLISDFYPGAVTVAWKADSSPVKAGVETTTPSKQSNNKYAASSYLSLTPEQWKSHRSYSCQVTHEGSTVEKTVAPTECS
– | 2.7 nM | 12F4 hIgG1 (antibody, V domains shown) VH: EVQLVESGGGLVEPGGSLRLSCAVSGFDFEKAWMSWVRQAPGQGLQWVARIKSTADGGTTSYAAPVEGRFIISRDDSRNMLYLQMNSLKTEDTAVYYCTSAHWGQGTLVTVSS VL: SYELTQPPSVSVSPGQTARITCSGEALPMQFAHWYQQRPGKAPVIVVYKDSERPSGVPERFSGSSSGTTATLTITGVQAEDEADYYCQSPDSTNTYEVFGGGTKLTVLS
